T1: mouse KLB (mouse, UniProt Q99N32 53-990)
T1 construct: expressed from KLB cDNA on HEK293T cells and read by FACS; also called msKLB
T1 sequence: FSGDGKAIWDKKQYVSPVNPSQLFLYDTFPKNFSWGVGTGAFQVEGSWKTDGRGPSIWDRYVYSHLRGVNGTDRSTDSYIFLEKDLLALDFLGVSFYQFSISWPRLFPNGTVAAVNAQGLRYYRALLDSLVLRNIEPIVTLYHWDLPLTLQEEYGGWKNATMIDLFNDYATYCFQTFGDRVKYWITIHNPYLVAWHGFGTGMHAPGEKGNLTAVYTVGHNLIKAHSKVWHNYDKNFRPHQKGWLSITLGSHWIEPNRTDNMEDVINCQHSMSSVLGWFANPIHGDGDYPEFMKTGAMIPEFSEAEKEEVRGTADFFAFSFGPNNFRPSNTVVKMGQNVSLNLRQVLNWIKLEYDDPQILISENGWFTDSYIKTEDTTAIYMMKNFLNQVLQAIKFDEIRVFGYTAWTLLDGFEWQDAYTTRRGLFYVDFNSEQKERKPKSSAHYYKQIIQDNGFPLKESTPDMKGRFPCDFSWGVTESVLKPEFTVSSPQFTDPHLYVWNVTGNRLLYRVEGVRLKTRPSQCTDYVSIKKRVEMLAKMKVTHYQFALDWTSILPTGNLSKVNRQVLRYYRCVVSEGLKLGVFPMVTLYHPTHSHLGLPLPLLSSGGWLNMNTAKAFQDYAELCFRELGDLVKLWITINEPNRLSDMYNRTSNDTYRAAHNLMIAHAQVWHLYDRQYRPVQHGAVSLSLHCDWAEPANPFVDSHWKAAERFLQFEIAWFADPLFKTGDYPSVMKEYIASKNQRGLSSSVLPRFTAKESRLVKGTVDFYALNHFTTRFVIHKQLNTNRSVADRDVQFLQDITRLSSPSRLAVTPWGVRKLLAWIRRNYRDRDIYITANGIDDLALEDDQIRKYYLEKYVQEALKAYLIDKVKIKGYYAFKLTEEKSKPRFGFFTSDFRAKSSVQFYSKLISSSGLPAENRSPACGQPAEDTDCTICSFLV

T2: rhesus monkey KLB (+N-ter FLAG) (rhesus monkey, UniProt Q86Z14 53-992 (human entry))
T2 construct: expressed from KLB cDNA on HEK293T cells and read by FACS
T2 chain: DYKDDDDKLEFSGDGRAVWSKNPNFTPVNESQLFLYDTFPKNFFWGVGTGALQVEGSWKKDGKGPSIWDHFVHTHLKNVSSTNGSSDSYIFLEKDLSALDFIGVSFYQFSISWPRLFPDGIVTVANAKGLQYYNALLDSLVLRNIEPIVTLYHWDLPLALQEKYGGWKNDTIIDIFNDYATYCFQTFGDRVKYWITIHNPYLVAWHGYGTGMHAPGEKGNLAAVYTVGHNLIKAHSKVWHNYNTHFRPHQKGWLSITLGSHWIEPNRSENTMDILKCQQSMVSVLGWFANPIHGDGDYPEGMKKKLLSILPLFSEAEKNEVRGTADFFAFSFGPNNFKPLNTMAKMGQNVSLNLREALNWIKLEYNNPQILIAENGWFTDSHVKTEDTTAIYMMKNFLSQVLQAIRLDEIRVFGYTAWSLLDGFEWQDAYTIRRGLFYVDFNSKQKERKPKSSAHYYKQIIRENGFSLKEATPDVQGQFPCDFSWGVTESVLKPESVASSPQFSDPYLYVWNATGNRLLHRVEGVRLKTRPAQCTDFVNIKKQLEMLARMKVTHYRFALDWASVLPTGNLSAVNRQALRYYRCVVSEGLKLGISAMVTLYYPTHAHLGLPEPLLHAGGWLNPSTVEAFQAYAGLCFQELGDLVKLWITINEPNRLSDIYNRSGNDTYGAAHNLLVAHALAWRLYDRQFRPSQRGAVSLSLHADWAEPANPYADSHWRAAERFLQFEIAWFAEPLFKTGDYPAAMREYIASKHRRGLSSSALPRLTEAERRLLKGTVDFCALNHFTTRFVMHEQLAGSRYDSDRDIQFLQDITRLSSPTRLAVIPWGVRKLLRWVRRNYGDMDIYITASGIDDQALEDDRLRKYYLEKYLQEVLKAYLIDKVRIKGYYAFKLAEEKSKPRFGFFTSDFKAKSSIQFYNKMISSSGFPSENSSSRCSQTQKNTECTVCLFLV


What was measured:
mouse KLB = molecular target: T1, mouse KLB; experiment: FACS on transfected HEK293T cells
Protocol: (§1) Species cross reactivity of the disclosed anti-KLB antibodies were analyzed by FACS analysis using KLB cDNA from mouse, rat, rabbit, cynomolgus monkey and rhesus monkey cloned into pRK mammalian expression vectors transiently transfected into HEK293T cells. The KLB extracellular domain polypeptide sequences that were expressed are as follows: […]

[1] = molecular target: T2, rhesus monkey KLB (+N-ter FLAG); experiment: FACS on transfected HEK293T cells
Protocol: as §1

| Binder | binding result (mouse KLB) | binding result [1] |
| --- | --- | --- |
| 46C3 (antibody, V domains shown, murine hybridoma-derived anti-KLB antibody) VH: EVQLQQSGAELVKPGASVKLSCTASDFNIIDTYIHWVKQRPEQGLEWIGRIDPANGNTKYDPKFQDKAALTSDTDSNTAYLLFNSLTSEDTAVYYCARGTSYSWFAYWGQGTLVSVSA VL: AVLMTQTPLSLPVSLGDQASISCRSSQNIVHSDGNTYLEWYLQKPGQSPKLLIYKVSNRFSGVPDRFSGSGSGRDFTLKISRVEAGDLGVYYCFQGSHVLTFGAGTRLELK | no binding | no binding |
| 11F1 (antibody, V domains shown, murine hybridoma-derived anti-KLB antibody) VH: EVQLVESGGGLVKPGGSLKLSCAPSGFTFSSYGISWVRQTPEKRLEWVATVSSGGRYTYYPDSVKGRFTISRDNAENTLYLQMSSLRSEDTAMYYCTRGGDGYALDYWGQGTSVTVSS VL: DIQMTQTTSSLSASLGDRVTIICSASQVISNYLNWYQQKPDGTVKLLIYFTSSLRSGVPSRFSGSGSGTDYSLTISNLEPEDVATYFCQQYSKLPWTFGGGTKLELK | no binding | binds |

Reference: patent US20220064331A1 (Genentech, published 2022)
